In patent US20230405078A1, “DETECTION AND TREATMENT OF INTESTINAL FIBROSIS” (THE REGENTS OF THE UNIVERSITY OF CALIFORNIA, priority 2020, published 2023):

Columns and labels:
3T3-L1 adipocytes = test: Lipid accumulation and gene expression in 3T3-L1 adipocytes; format: cell-based, mouse; conditions: 24-h; elafin 10 ng/ml, miRNA mimics 75 ng/ml
Text: FIG. 34. Immune cell-derived miR181b-5p and miR219-5p induced leptin mRNA expression in 3T3-L1 adipocytes. (A) Mouse serum exosomal miRNA expression was profiled by a PCR array. miR219-5p, miR210-3p, and miR181-5p were undetectable in the serum exosomes of HFD-treated mice without elafin overexpression. These three miRNAs were detected in the serum exosomes of elafin-overexpressing HFD-treated mice only. Each group consists of 6 mice. […] (C) The positive correlation between serum elafin levels and miRNAs (miR181b-5p and miR210-3p, but not miR219-5p) in the men with T2DM. […]
Cell culture experiments. […] Adipocyte lipid accumulation was determined using Oil Red O staining, as described previously.
Quantitative real-time reverse transcription-polymerase chain reaction (RT-PCR) and miRNA PCR array. […] Quantitative PCR reactions were run with Fast Universal PCR master mix (#4352042, ThermoFisher) in a Bio-Rad CFX384 using cataloged primers (ThermoFisher) for human elafin (Hs00160066_m1), human leptin (Hs00174877_m1), mouse Cd36 (Mm00432403_m1), mouse adiponectin (Mm00456425_m1), mouse leptin (Mm00434759_m1), and mouse Tnf (Mm00443258_m1). Relative mRNA quantification was performed by comparing test groups and control group, after normalization with endogenous control gene human 18S (Hs99999901_s1) or mouse Gapdh (Mm99999915_g1).

SAMP1/YitFc mice = test: Spontaneous ileal fibrosis in SAMP1/YitFc mice; format: in vivo; conditions: SAMP1/YitFc model
Experimental: Eight-week-old male and female SAMP1/YitFc mice (#009355) and normal AKR strain control mice (#000648) were purchased from Jackson Laboratories. SAMP1/YitFc mice developed spontaneous ileal inflammation and fibrosis at 40 weeks of age.
Some groups were treated with antibiotics mixture in drinking water ad libitum from 10 to 42 weeks of age. Others received a single intraperitoneal injection (1×10^7 infectious units/mouse) of either control lentivirus or elafin-expressing lentivirus (RC203136L1V, Origene) at 40-weeks of age. Ileal tissues were collected for analysis two weeks after the lentiviral injection.
H&E and Masson Trichrome (MT) staining were performed as described previously. Microphotographs were recorded at multiple locations and scored by two investigators blindly. Intestinal injuries were scored (0-12). The severity of intestinal fibrosis was assessed by MT staining and scored (0-3). ZEB1 immunohistochemistry was performed using an anti-ZEB1 antibody (HPA027524, Sigma).
Total RNA was isolated by an RNeasy kit (#74104, Qiagen) and reverse transcribed into cDNA by a high-capacity cDNA reverse transcription kit (#4368813, ThermoFisher). […] Relative mRNA/miRNA quantification was performed by comparing test groups and control groups after normalization with endogenous control genes. The fold changes are expressed as 2^ΔΔCt. […]

[1] = Basic pharmacokinetics of subcutaneous elafin in RD-treated male mice; format: in vivo; conditions: natural elafin 1 mg/kg subcutaneous
Experimental: FIG. 36. Subcutaneous and oral administration of modified elafin inhibited hyperphagia and hyperglycemia in HFD-treated male mice. (A) Elafin (1 mg/kg) was injected into RD-treated male mice subcutaneously. Tail-vein blood samples were collected for elafin ELISA. This mouse experiment was intended for the determination of basic pharmacokinetics of elafin, but not the determination of physiology of elafin. (B) HFD-treated mice were treated with either oral gavage of Elafin-Eudragit formulation (10 mg/kg) daily or subcutaneous injection of PEG-elafin (3.25 mg/kg) every 48 h for 14 days. Serum elafin levels. (C) Serum leptin levels. (D) Serum IFNγ and IL-1β levels. (E) Daily food consumption. (F) Change in fat mass. (G) Change in body weight over 14 days. (H) Fasting blood glucose levels. Each group consists of 8 mice.

Substance: Elafin: small (6 kDa) human elastase-specific protease inhibitor and antimicrobial peptide; active form SEQ ID NO: 2 (AQEPVKGPVSTKPGSCPIILIRCAMLNPPNRCLKDTDCPGIKKCCEGSCGMACFVPQ; listed as Homo sapiens)
- lipid accumulation; Cd36 and adiponectin mRNA expression (3T3-L1 adipocytes): affected neither
- overall disease activity (SAMP1/YitFc mice): 7%
- half-life in circulation [1]: 3 h
